The values that follow come from paper PMC9634968.

The chains are these.
B1: CXCR4: N15A (protein)
parent chain: MSIPLPLLQIYTSDNYTEEMGSGDYDSMKEPCFREENANFNKIFLPTIYSIIFLTGIVGNGLVILVMGYQKKLRSMTDKYRLHLSVADLLFVITLPFWAVDAVANWYFGNFLCKAVHVIYTVNLYSSVLILAFISLDRYLAIVHATNSQRPRKLLAEKVVYVGVWIPALLLTIPDFIFANVSEADDRYICDRFYPNDLWVVVFQFQHIMVGLILPGIVILSCYCIIISKLSHSKGHQKRKALKTTVILILAFFACWLPYYIGISIDSFILLEIIKQGCEFENTVHKWISITEALAFFHCCLNPILYAFLGAKFKTSAQHALTSVSRGSSLKILSKGKRGGHSSVSTESESSSFHSS
B2: CXCR4: N180A (protein)
parent chain: B1 parent chain
B3: CXCR4: N15A/N180A (protein)
parent chain: B1 parent chain

The data set can be described thus: Western blot after 125 nM CXCL12, 30 min, HEK 293T. The conditions noted are these: glycan lost; control: wild type.
Take B1: the degradation_or_half_life entry is “increases”.

In the case of B2, the degradation_or_half_life result is recorded as “no change”.

As for B3, the degradation_or_half_life entry was “increases”.
